How the values were obtained:
[1] = target: Factor X (FX) (Homo sapiens (Human)) (UniProt P00742)
[2] = target: Factor X (Homo sapiens (Human)) (UniProt P00742)
Chain of Factor X (Homo sapiens (Human)) (P00742 41-488 limits assumed): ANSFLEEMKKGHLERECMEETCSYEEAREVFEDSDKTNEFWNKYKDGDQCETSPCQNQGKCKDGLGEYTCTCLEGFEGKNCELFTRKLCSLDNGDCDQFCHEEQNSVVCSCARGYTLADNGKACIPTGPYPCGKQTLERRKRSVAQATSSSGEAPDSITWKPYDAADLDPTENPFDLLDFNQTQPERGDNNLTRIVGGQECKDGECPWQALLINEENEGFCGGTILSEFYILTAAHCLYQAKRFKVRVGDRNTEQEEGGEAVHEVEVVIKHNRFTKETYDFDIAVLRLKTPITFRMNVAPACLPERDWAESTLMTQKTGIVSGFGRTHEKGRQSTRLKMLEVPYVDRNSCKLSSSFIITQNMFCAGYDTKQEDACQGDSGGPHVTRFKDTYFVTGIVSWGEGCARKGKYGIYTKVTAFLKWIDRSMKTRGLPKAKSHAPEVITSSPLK

Chain of Factor X (FX) (Homo sapiens (Human)) (P00742 41-488 limits assumed): as above

Row | Molecule | kcat/KM, TF-Dependent Indirect Assay [1] [M⁻¹ s⁻¹] | other results
1 | FVIIa variant T128N/P129A/A175S (enzyme) | 2.98e+07 | –
2 | FVIIa variant T128N/P129A (enzyme) | 5.96e+07 | –
3 | FVIIa variant A122N/G124S/A175S (enzyme) | 2.79e+07 | –
4 | FVIIa variant K109N (enzyme) | 5.97e+07 | –
5 | FVIIa variant Q286N (enzyme) ANAFLEELRPGSLERECKEEQCSFEEAREIFKDAERTKLFWISYSDGDQCASSPCQNGGSCKDQLQSYICFCLPAFEGRNCETHKDDQLICVNENGGCEQYCSDHTGTKRSCRCHEGYSLLADGVSCTPTVEYPCGKIPILEKRNASKPQGRIVGGKVCPKGECPWQVLLLVNGAQLCGGTLINTIWVVSAAHCFDKIKNWRNLIAVLGEHDLSEHDGDEQSRRVAQVIIPSTYVPGTTNHDIALLRLHQPVVLTDHVVPLCLPERTFSERTLAFVRFSLVSGWGNLLDRGATALELMVLNVPRLMTQDCLQQSRKVGDSPNITEYMFCAGYSDGSKDSCKGDSGGPHATHYRGTWYLTGIVSWGQGCATVGHFGVYTRVSQYIEWLQKLMRSEPRPGVLLRAPFP | 4.88e+07 | –
6 | S222A/H257A/Q286R/M298Q-FVIIa (enzyme) ANAFLEELRPGSLERECKEEQCSFEEAREIFKDAERTKLFWISYSDGDQCASSPCQNGGSCKDQLQSYICFCLPAFEGRNCETHKDDQLICVNENGGCEQYCSDHTGTKRSCRCHEGYSLLADGVSCTPTVEYPCGKIPILEKRNASKPQGRIVGGKVCPKGECPWQVLLLVNGAQLCGGTLINTIWVVSAAHCFDKIKNWRNLIAVLGEHDLSEHDGDEQARRVAQVIIPSTYVPGTTNHDIALLRLHQPVVLTDAVVPLCLPERTFSERTLAFVRFSLVSGWGRLLDRGATALELQVLNVPRLMTQDCLQQSRKVGDSPNITEYMFCAGYSDGSKDSCKGDSGGPHATHYRGTWYLTGIVSWGQGCATVGHFGVYTRVSQYIEWLQKLMRSEPRPGVLLRAPFP | – | kcat/KM (M^-1s^-1), TF-dependent assay [2]: 1.65e+08 M⁻¹ s⁻¹; kcat/KM, TF-independent assay [2]: 345 M⁻¹ s⁻¹
7 | T239I/Q286R/M298Q/Q366N-FVIIa (enzyme) ANAFLEELRPGSLERECKEEQCSFEEAREIFKDAERTKLFWISYSDGDQCASSPCQNGGSCKDQLQSYICFCLPAFEGRNCETHKDDQLICVNENGGCEQYCSDHTGTKRSCRCHEGYSLLADGVSCTPTVEYPCGKIPILEKRNASKPQGRIVGGKVCPKGECPWQVLLLVNGAQLCGGTLINTIWVVSAAHCFDKIKNWRNLIAVLGEHDLSEHDGDEQSRRVAQVIIPSTYVPGTINHDIALLRLHQPVVLTDHVVPLCLPERTFSERTLAFVRFSLVSGWGRLLDRGATALELQVLNVPRLMTQDCLQQSRKVGDSPNITEYMFCAGYSDGSKDSCKGDSGGPHATHYRGTWYLTGIVSWGNGCATVGHFGVYTRVSQYIEWLQKLMRSEPRPGVLLRAPFP | – | kcat/KM, TF-dependent assay [2]: 7.4e+07 M⁻¹ s⁻¹
8 | T239I/M298Q/H373F-FVIIa (enzyme) ANAFLEELRPGSLERECKEEQCSFEEAREIFKDAERTKLFWISYSDGDQCASSPCQNGGSCKDQLQSYICFCLPAFEGRNCETHKDDQLICVNENGGCEQYCSDHTGTKRSCRCHEGYSLLADGVSCTPTVEYPCGKIPILEKRNASKPQGRIVGGKVCPKGECPWQVLLLVNGAQLCGGTLINTIWVVSAAHCFDKIKNWRNLIAVLGEHDLSEHDGDEQSRRVAQVIIPSTYVPGTINHDIALLRLHQPVVLTDHVVPLCLPERTFSERTLAFVRFSLVSGWGQLLDRGATALELQVLNVPRLMTQDCLQQSRKVGDSPNITEYMFCAGYSDGSKDSCKGDSGGPHATHYRGTWYLTGIVSWGQGCATVGFFGVYTRVSQYIEWLQKLMRSEPRPGVLLRAPFP | – | kcat/KM, TF-dependent assay [2]: 3.47e+07 M⁻¹ s⁻¹

More lines, main results first:

Row | kcat/KM, TF-Dependent Indirect Assay [1] [M⁻¹ s⁻¹] | Molecule | other results
9 | 1.11e+08 | FVIIa variant Q286R (enzyme) | –
10 | 1.05e+08 | FVIIa variant S52A/S60A (enzyme) | –
11 | 1.4e+08 | FVIIa variant M298Q (enzyme) | –
12 | 2.92e+07 | FVIIa variant S119N/L121S/A175S (enzyme) | –
13 | 5.73e+07 | FVIIa variant S222A (enzyme) | –
14 | 2.64e+08 | FVIIa variant Q286R/M298Q/Gla Swap FIX (enzyme) | –
15 | 3.67e+07 | FVIIa variant K109N/A175S (enzyme) | –
